Assay results as given in publication PMC6307106.

How the values were obtained:
[1] = molecular target: PDGFRα extracellular domain (Homo sapiens, UniProt P16234 24-524); assay: SPR
PDGFRβ (recombinant) = PDGFRβ (recombinant) (UniProt P09619 33-532); assay: SPR
PDGFRβ (recombinant), sequence (P09619 33-532): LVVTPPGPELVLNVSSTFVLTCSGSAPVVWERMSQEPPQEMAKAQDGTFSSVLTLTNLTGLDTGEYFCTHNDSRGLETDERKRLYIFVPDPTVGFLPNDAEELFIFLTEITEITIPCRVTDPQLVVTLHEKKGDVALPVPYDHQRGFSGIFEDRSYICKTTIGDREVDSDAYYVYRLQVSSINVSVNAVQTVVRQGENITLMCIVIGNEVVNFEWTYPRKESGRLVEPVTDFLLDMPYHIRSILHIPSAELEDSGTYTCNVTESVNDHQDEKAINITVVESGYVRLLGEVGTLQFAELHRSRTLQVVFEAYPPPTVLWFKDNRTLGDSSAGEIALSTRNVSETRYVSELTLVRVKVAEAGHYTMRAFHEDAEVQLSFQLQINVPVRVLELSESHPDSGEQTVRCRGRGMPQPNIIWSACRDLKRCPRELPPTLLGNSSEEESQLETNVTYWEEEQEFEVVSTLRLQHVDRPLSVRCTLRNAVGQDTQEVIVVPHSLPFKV

PDGFRα extracellular domain, sequence (P16234 24-524): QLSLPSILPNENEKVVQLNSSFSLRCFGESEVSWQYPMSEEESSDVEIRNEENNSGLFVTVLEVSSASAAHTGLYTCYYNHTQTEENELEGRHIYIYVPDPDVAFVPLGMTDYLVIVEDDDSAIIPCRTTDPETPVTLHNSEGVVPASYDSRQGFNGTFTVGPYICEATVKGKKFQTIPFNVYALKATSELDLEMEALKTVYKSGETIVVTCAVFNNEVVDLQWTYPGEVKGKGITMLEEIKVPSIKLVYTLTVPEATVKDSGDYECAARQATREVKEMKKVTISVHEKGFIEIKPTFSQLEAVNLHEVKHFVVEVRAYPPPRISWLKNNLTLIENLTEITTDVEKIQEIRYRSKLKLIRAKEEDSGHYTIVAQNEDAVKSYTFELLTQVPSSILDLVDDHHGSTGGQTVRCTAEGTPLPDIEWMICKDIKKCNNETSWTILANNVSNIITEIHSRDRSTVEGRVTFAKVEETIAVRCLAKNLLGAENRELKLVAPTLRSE

B1: PDR3 (structured_RNA)
RNA: GGGAGAGCGGAAGCGUGCUGGGCCUGCUCUUUAAUAAACCCACUUUCGAACAUCAGCGUAUGUCCAUAACCCAGAGGUGAUGGAUCCCCC
modifications: 2'-F pyrimidines (2'F-U, 2'F-C)
Kd [1]: 0.25 nM
binding result (PDGFRβ (recombinant)): no binding
